T1: yeast Prp40 (S. cerevisiae, UniProt P33203 1-583)
T1 construct: Prp40 of S. cerevisiae U1 snRNP; not modelled in the structure; source: endogenous, S. cerevisiae; co-purified in U1 snRNP through the TAP tag on U1A
T1 sequence (looked up): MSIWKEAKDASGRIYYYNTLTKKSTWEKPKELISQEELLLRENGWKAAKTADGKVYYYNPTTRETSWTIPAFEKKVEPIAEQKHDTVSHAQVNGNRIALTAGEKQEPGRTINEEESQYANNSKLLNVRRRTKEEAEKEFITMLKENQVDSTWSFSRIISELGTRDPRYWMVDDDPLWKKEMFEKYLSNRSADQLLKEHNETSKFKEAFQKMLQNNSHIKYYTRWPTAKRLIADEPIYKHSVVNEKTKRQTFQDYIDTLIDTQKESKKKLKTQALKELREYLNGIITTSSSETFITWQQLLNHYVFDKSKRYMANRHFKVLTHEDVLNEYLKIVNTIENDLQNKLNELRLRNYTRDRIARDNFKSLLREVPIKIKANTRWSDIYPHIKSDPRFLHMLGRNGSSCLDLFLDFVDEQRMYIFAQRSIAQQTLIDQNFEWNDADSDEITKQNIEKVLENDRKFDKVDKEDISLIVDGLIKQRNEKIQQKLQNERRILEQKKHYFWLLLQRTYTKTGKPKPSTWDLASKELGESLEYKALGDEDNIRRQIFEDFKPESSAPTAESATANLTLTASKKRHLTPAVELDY

T2: yeast Prp42 (S. cerevisiae, UniProt Q03776 1-544)
T2 construct: Prp42 of S. cerevisiae, 544 residues; residues 2-540 modelled; source: endogenous, S. cerevisiae; co-purified in U1 snRNP through the TAP tag on U1A
T2 sequence (looked up): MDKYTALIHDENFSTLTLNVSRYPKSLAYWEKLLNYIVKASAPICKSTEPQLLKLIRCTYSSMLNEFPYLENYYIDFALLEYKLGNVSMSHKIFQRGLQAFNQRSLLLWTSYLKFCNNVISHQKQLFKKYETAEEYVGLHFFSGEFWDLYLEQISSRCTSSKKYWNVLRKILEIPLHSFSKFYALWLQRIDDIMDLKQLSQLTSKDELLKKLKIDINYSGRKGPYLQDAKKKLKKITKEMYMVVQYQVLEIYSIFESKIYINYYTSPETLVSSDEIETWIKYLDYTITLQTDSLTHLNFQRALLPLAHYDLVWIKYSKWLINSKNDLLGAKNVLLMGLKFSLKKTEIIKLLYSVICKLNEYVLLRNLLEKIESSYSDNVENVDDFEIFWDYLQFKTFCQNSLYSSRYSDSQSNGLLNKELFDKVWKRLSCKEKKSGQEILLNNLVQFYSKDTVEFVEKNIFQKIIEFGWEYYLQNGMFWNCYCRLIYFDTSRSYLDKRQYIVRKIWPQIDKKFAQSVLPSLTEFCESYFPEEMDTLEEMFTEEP

T3: yeast Snu56 (S. cerevisiae, UniProt Q03782 1-492)
T3 construct: Snu56 of S. cerevisiae, 492 residues; N-terminal domain 47-254 and long helix 255-303 modelled; source: endogenous, S. cerevisiae; co-purified in U1 snRNP through the TAP tag on U1A
T3 sequence (looked up): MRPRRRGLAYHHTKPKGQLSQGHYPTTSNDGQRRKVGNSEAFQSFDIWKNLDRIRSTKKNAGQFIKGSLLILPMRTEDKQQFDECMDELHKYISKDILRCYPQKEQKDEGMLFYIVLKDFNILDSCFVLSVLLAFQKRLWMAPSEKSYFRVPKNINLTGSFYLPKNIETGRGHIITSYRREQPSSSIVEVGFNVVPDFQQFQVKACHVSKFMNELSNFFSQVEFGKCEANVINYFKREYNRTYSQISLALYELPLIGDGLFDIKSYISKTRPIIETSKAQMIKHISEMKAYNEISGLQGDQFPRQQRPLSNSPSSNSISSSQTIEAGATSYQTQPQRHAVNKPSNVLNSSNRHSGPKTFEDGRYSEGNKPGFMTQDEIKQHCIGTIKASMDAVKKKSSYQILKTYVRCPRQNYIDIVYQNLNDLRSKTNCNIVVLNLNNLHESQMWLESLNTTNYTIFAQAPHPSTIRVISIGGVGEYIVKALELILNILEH

T4: yeast U1C (S. cerevisiae, UniProt Q05900 1-231)
T4 construct: U1C of S. cerevisiae U1 snRNP, 231 residues; NTD residues 1-48; residues 3-47 and 48-195 modelled; also called Yhc1; source: endogenous, S. cerevisiae; co-purified in U1 snRNP through the TAP tag on U1A
T4 sequence (looked up): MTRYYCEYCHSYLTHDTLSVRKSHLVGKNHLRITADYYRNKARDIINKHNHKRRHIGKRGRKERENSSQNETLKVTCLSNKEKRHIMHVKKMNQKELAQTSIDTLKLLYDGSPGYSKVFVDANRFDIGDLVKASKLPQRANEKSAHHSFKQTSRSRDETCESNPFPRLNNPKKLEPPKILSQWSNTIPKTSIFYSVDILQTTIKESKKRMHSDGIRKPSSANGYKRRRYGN


Key:
yeast Prp40 = biological target: T1, yeast Prp40; experiment: cross-linking; purified yeast U1 snRNP cross-linked with 100 uM BS3, 30 min, room temperature; trypsin digest, mass spectrometry; conditions: both partners purified
yeast Prp42 = biological target: T2, yeast Prp42; experiment: cryo-EM structure; natively purified yeast U1 snRNP, 3.6 Å overall resolution; conditions: both partners purified
yeast Snu56 = biological target: T3, yeast Snu56; experiment: as above; conditions: both partners purified
yeast U1C = biological target: T4, yeast U1C; experiment: as above; conditions: both partners purified
[1] = biological target: the molecule itself; experiment: negative-stain EM; purified Flag-PrpF39; reference-free 2D class averages and preliminary 3D model compared with the Prp42/Prp39 heterodimer

Row | Binder | binding result (yeast Prp40) | binding result (yeast Prp42) | binding result (yeast Snu56) | binding result (yeast U1C) | stoichiometry N [1]
1 | yeast Luc7 (natural protein, S. cerevisiae, UniProt Q07508 1-261, looked up, Luc7 of S. cerevisiae, 261 residues; first (pseudo) Zn-finger modelled; source: endogenous, S. cerevisiae; co-purified in U1 snRNP through the TAP tag on U1A) MSTMSTPAAEQRKLVEQLMGRDFSFRHNRYSHQKRDLGLHDPKICKSYLVGECPYDLFQGTKQSLGKCPQMHLTKHKIQYEREVKQGKTFPEFEREYLAILSRFVNECNGQISVALQNLKHTAEERMKIQQVTEELDVLDVRIGLMGQEIDSLIRADEVSMGMLQSVKLQELISKRKEVAKRVRNITENVGQSAQQKLQVCEVCGAYLSRLDTDRRLADHFLGKIHLGYVKMREDYDRLMKNNRTTNASKTATTLPGRRFV | binds | binds | binds | – | –
2 | yeast SmD3 (natural protein, S. cerevisiae, UniProt P43321 1-101, looked up, SmD3 of S. cerevisiae, member of the Sm ring of U1 snRNP; source: endogenous, S. cerevisiae; co-purified in U1 snRNP through the TAP tag on U1A) MTMNGIPVKLLNEAQGHIVSLELTTGATYRGKLVESEDSMNVQLRDVIATEPQGAVTHMDQIFVRGSQIKFIVVPDLLKNAPLFKKNSSRPMPPIRGPKRR | – | binds | – | binds | –
3 | human PrpF39, Flag-tagged (second copy HA-tagged in the co-IP) (natural protein, UniProt Q86UA1 1-669, looked up, human PrpF39; In the co-IP two differently tagged copies (Flag-PrpF39 and HA-PrpF39) were co-transfected; The purified protein carries the Flag tag; also called Flag-PrpF39; HA-PrpF39; source: HEK293FT, transfected (pEF-Bos-Flag-PrpF39 and/or pEF-Bos-HA-PrpF39), in lysate; also purified (anti-Flag M2 agarose, 3x Flag peptide elution, Superose 6 gel filtration)) MQNSHMDEYRNSSNGSTGNSSEVVVEHPTDFSTEIMNVTEMEQSPDDSPNVNASTEETEMASAVDLPVTLTETEANFPPEYEKFWKTVENNPQDFTGWVYLLQYVEQENHLMAARKAFDRFFIHYPYCYGYWKKYADLEKRHDNIKPSDEVYRRGLQAIPLSVDLWIHYINFLKETLDPGDPETNNTIRGTFEHAVLAAGTDFRSDRLWEMYINWENEQGNLREVTAIYDRILGIPTQLYSHHFQRFKEHVQNNLPRDLLTGEQFIQLRRELASVNGHSGDDGPPGDDLPSGIEDITDPAKLITEIENMRHRIIEIHQEMFNYNEHEVSKRWTFEEGIKRPYFHVKPLEKAQLKNWKEYLEFEIENGTHERVVVLFERCVISCALYEEFWIKYAKYMENHSIEGVRHVFSRACTIHLPKKPMVHMLWAAFEEQQGNINEARNILKTFEECVLGLAMVRLRRVSLERRHGNLEEAEHLLQDAIKNAKSNNESSFYAVKLARHLFKIQKNLPKSRKVLLEAIERDKENTKLYLNLLEMEYSGDLKQNEENILNCFDKAVHGSLPIKMRITFSQRKVEFLEDFGSDVNKLLNAYDEHQTLLKEQDSLKRKAENGSEEPEEKKAHTEDTTSSSTQMIDGDLQANQAVYNYSAWYQYNYQNPWNYGQYYPPPPT | – | – | – | – | 2

— publication PMC5648754, “CryoEM structure of Saccharomyces cerevisiae U1 snRNP offers insight into alternative splicing” (Nature Communications, 2017)
